Results as given in patent US20170320960A1 (AbbVie / Abbott, published 2017).
Like-named read-outs stand apart in the source and are kept apart here.

Columns and labels:
Test in all cases: flow cytometry on yeast displaying hMFI2 domains
[1] = target: T1, hMFI2 Tf-like Domain 1 (TLD1), amino acids 20-357, displayed on yeast (human, UniProt P08582 20-357)
T1 construct: also called TFLD1
T1 sequence: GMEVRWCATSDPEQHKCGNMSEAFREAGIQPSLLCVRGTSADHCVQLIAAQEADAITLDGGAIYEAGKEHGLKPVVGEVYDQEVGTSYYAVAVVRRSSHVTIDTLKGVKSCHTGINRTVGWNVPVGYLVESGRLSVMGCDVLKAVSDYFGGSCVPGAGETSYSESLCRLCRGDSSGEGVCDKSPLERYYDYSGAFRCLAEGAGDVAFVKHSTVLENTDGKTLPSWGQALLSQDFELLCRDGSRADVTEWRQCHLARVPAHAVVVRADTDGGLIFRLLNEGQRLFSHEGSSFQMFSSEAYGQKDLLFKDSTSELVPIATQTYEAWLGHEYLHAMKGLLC

[2] = target: T2, hMFI2 Tf-like Domain 2 (TLD2), amino acids 366-709, displayed on yeast (human, UniProt P08582 366-709)
T2 construct: also called TFLD2; transferrin-like domain 2
T2 sequence: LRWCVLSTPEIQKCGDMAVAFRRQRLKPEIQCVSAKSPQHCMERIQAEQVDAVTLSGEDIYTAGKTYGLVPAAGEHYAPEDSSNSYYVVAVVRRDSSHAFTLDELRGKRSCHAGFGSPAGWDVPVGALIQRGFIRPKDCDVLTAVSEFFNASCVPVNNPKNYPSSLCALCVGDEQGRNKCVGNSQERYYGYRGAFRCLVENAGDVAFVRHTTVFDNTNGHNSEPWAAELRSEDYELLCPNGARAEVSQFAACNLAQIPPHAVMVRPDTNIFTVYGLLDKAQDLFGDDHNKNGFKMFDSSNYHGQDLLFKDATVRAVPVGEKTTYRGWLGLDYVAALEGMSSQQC

[3] = target: T2, hMFI2 Tf-like Domain 2 (TLD2), amino …; remark: listed apart in the source

binding result [2] | binding result [3] | Binder | also measured
– | binds | SC57.37 (antibody, V domains shown) VH: EIQLQQSGPEMVKPGASVKVTCKASGYSFTDFNMHWMKQSHGKSLEWIGYIDPYKGGISYNQKFKGRATLTVDKSSSTAFMHLNSLTSDDSAVYYCARDYYGSRFPYYFDYWGQGTTLTVSS VL: DVVMTQTPLSLPVSLGDQASISCRSSQSLVHSNGNTYLHWYLQKPGQSPKLLIYRVSNRFSGVPDRFSGSGSGTDFTLKISRVEAEDLGVYLCSQSTHVPLTFGAGTKLELK | –
– | binds | SC57.52 (antibody, V domains shown) VH: QVQLKQSGPGLVQPSQSLSITCTVSGFSLSSYGVHWVRQSPGKGLEWLGVIWSGGNTDYNAAFISRLSISKDNSKSQVFFKMNSLQADDTAIYYCARRNNSAWFAYWGQGTLVTVSA VL: DIVLTQSPATLSVTPGDSVSLSCRASQGISNNLHWYQQKSHESPRLLIKYASQSISGIPSRFSGSGSGTDFALSINSVETEDFGMFFCQQSNSWPLTFGAGTKLELK | –
– | binds | SC57.55 (antibody, V domains shown) VH: QVQLKQSGPGLVQPSQSLSITCTVSGFSLSSYGVHWVRQSPGKGLEWLGVIWSGGNTDYNAAFISRLSISKDNSKSQVFFKMNSLQADDTAIYYCARRNNSAWFAYWGQGTLVTVSA VL: DIVLTQSPATLSVTPGDSVSLSCRASQGISNNLHWYQQKSHESPRLLIKYASQSISGIPSRFSGSGSGTDFALSINSVETEDFGMFFCQQSNSWPLTFGAGTKLELK | –
– | binds | hSC57.5 (antibody, human IgG1, kappa, V domains shown, also called humanized SC57.5) VH: EVQLVQSGAEVKKPGESLKISCKGSGYSFTDYYLHWVRQMPGKGLEWMGRINPYNGATSYNQIFKDQVTISADKSISTAYLQWSSLKASDTAMYYCARGGDYDFPWYWGQGTTVTVSS VL: DIQMTQSPSSLSASVGDRVTITCKASQDVYAAVAWYQQKPGKAPKLLIYWASTRHAGVPSRFSGSGSGTDFTLTISSLQPEDFATYYCQQHYRTPWTFGQGTKVEIKR | –
– | binds | hSC57.32 (antibody, human IgG1, kappa, V domains shown) VH: QVQLVQSGAEVKKPGASVKVSCKASGYTFTNYRIEWVRQAPGQGLEWMGEILPRGGNTNYNEKFKGRVTFTADTSTSTAYMELRSLRSDDTAVYYCARDDGYYGRFAYWGQGTLVTVSS VL: DIQMTQSPSSLSASVGDRVTITCRASQDISNYLNWYQQKPGKAPKLLIYYTSRLHSGVPSRFSGSGSGTDYTLTISSLQPEDFATYYCQQGNTLPPTFGGGTKVEIKR | –
– | binds | hSC57.43 (antibody, human IgG1, kappa, V domains shown) VH: QVQLVESGGGVVQPGRSLRLSCAASGFTFGSYTMSWVRQAPGKGLEWVAYISNGGYVTYYPDTVKGRFTISRDNSKNTLYLQMNSLRAEDTAVYYCARGYDWYFDVWGQGTTVTVSS VL: DIVMTQSPDSLAVSLGERATINCRSSQSLVHSNGNTYLHWYQQKPGQPPKLLIYKVSNRFSGVPDRFSGSGSGTDFTLTISSLQAEDVAVYYCSQSTHVPLYTFGGGTKVEIKR | –

More lines, now with the values behind:

Binder | binding result [2] | binding result [3] | also measured
SC57.1 (antibody, V domains shown) VH: QVQLKQSGPGLVQPSQSLSITCTVSGFSLTDYGVHWVRQSPGKGLDWLGVIWSGGNTDYNAAFISRLSISKDNSKSQIFFEMNSLQDTDTAIYYCARQLHYYGPFAYWGQGTLVTVSA VL: QIVLTQSPAIMSASPGEKVTMTCSASSSVSYMHWYQQKSGTSPKRWIYDTSKLASGVPVRFSGSGSGTSYSLTISSIEADDAATYYCQQWSRTPPTFGGGTKLEIK | – | – | binding result [1]: binds
SC57.4 (antibody, V domains shown) VH: EIQLQQSGPEMVKPGASVKVTCKASGYSFTDFNMHWMKQSHGKSLEWIGYIDPYKGGISYNQKFKGRATLTVDKSSSTAFMHLNSLTSDDSAVYYCARDYYGSRFPYYFDYWGQGTTLTVSS VL: DVVMTQTPLSLPVSLGDQASISCRSSQSLVHSNGNTYLHWYLQKPGQSPKLLIYRVSNRFSGVPDRFSGSGSGTDFTLKISRVEAEDLGVYLCSQSTHVPLTFGAGTKLELK | binds | – | –
SC57.5 (antibody, V domains shown) VH: EVQLQQSGPELVKPGASVKISCKASGYSFTDYYLHWVKQSHVKSLEWIGRINPYNGATSYNQIFKDKASLTVDKSSSTAYMDLHSLTSEDSAVYYCARGGDYDFPWYWGQGTTLTVSP VL: DIVMTQSHKFMSTSVGDRVSITCKASQDVYAAVAWYHQKPGQSPKLLIYWASTRHAGVPDRFTGSGSGTDYTLTISSVQAEDLALYYCQQHYRTPWTFGGGTKLEIK | binds | – | –
SC57.9 (antibody, V domains shown) VH: QVQLQQSGPELMKPGASVKISCKATGYTFSSYWIEWVKQRPGHGLEWIGEILPGSGSTEYNEKFKGKATFTADTSSNTAYMQLSSLTSEDSDVYYCARKRYGTMDYWGQGTSVTVSS VL: QIVLTQSPAIMSASPGEKVTITCSASSSVSYMHWFQQKPGTSPKLWIYTTSNLASGVPARFSGSGSGTSYSLTISRMEAEDAATYYCQQRSSFPPTFGSGTKLEIK | binds | – | –
SC57.10 (antibody, V domains shown) VH: QVQLQQSGAELMKPGASVKISCKATGYTFSNYRIEWIKQRPGHGLEWIGEILPRGGNTNYNEKFKGKATFTADTSSNTAYMQLTSLTSEDSAVYYCARDDGYYGRFAYWGQGTLVTVSA VL: DIQMTQTTSSLSASLGDRVTISCRASQDISNYLNWYQQKPDGTVKLLIFYTSRLHSGVPSRFSGSGSGTDYSLTISNLEQEDFATYFCQQGNTLPPTFGGGTKLEIK | binds | – | –
SC57.11 (antibody, V domains shown) VH: QVQLQQSGAELMKPGASVKISCKATGYTFSNYRIEWMKQRPGHGLEWIGEILPRTGNTNYNENFKGKATFTADTSSNTAYIQLSSLTSEDSAVYYCARDDGYYGRFAYWGQGTLVTVSA VL: DIQMTQTTSSLSASLGDRVTISCRASQDISSYLNWYQQKPDGTVKLLIYYTSRLHSGVPSRFSGSGSGTDYSLTINNLEQEDIATYFCQQGNTLPPTFGGGTKLEIK | binds | – | –
SC57.17 (antibody, V domains shown) VH: EVQLQQSGAELVKPGASVKLSCTASGFNIKDTYMHWVKQRPEQGLEWIGRIDPANVNTSDDPKFQGKATIAADTSSNTVYLQLSSLTSEDTAVYYCARDYRYDGYYYAMDYWGQGTSVTVSS VL: DIQMTQTTSSLSASLGDRVTISCSASQDINNYLNWYQQKPDGTVKLLIHYTSSLHSGVPSRFSGSGSGTDYSLTISNLEPEDIATYYCQQYSKVPWTFGGGTKLEIK | binds | – | –
SC57.18 (antibody, V domains shown) VH: EIQLQQSGPEMVKPGASVKVTCKASGYSFTDFNMHWMKQSHGKSLEWIGYIDPYKGGISYNQKFKGRATLTVDKSSSTAFMHLNSLTSDDSAVYYCARDYYGSRFPYYFDYWGQGTTLTVSS VL: DVVMTQTPLSLPVSLGDQASISCRSSQSLVHSNGNTYLHWYLQKPGQSPKLLIYRVSNRFSGVPDRFSGSGSGTDFTLKISRVEAEDLGVYLCSQSTHVPLTFGAGTKLELK | binds | – | –
SC57.25 (antibody, V domains shown) VH: EIQLQQSGPEMVKPGASVKVTCKASGYSFTDFNMHWMKQSHGKSLEWIGYIDPYKGGISYNQKFKGRATLTVDKSSSTAFMHLNSLTSDDSAVYYCARDYYGSRFPYYFDYWGQGTTLTVSS VL: DVVMTQTPLSLPVSLGDQASISCRSSQSLVHSNGNTYLHWYLQKPGQSPKLLIYRVSNRFSGVPDRFSGSGSGTDFTLKISRVEAEDLGVYLCSQSTHVPLTFGAGTKLELK | binds | – | –
SC57.28 (antibody, V domains shown) VH: EIQLQQSGPEMVKPGASVKVTCKASGYSFTDFNMHWMKQSHGKSLEWIGYIDPYKGGISYNQKFKGRATLTVDKSSSTAFMHLNSLTSDDSAVYYCARDYYGSRFPYYFDYWGQGTTLTVSS VL: DVVMTQTPLSLPVSLGDQASISCRSSQSLVHSNGNTYLHWYLQKPGQSPKLLIYRVSNRFSGVPDRFSGSGSGTDFTLKISRVEAEDLGVYLCSQSTHVPLTFGAGTKLELK | binds | – | –
SC57.31 (antibody, V domains shown) VH: QVHLKESGPGLVAPSQSLSITCTVSGFSLTTYGVHWVRQPPGKGLEWLGVIWAGGSTKYNSAFMSRLSISKDNSKTQVLLKMNSLQTDDTAMYYCARVASHGSSSWFAYWGQGTLVTVSA VL: DIVLTQSPATLSVTPGDSVSLSCRASQSVGNSLHWYQQKSHESPRLLIKYASQSISGIPSRFSGSGSGTDFTLSINSVETEDFGMYFCQQSDSWPLTFGTGTKLELK | – | binds | –
SC57.32 (antibody, V domains shown) VH: QVQLQQSGAELMKPGASVKISCKATGYTFSNYRIEWIKQRPGHGLEWIGEILPRGGNTNYNEKFKGKATFTADTSSNTAYMQLTSLTSEDSAVYYCARDDGYYGRFAYWGQGTLVTVSA VL: DIQMTQTTSSLSASLGDRVTISCRASQDISNYLNWYQQKPDGTVKLLIFYTSRLHSGVPSRFSGSGSGTDYSLTISNLEQEDFATYFCQQGNTLPPTFGGGTKLEIK | – | binds | –
